{"source": "paper PMC9738581", "about": "“Dissection of Functional Domains of Orc1-2, the Archaeal Global DNA Damage-Responsive Regulator”", "conditions_in_all_cases": "protein: recombinant; tags: His; label: 5'-32P; blunt", "key": {"Orc1-2 wH": {"target": "T1, Orc1-2 wH (Saccharolobus islandicus REY15A, UniProt F0NF18 1-413, R353A;R354A;R381A;R383A)", "T1 sequence": "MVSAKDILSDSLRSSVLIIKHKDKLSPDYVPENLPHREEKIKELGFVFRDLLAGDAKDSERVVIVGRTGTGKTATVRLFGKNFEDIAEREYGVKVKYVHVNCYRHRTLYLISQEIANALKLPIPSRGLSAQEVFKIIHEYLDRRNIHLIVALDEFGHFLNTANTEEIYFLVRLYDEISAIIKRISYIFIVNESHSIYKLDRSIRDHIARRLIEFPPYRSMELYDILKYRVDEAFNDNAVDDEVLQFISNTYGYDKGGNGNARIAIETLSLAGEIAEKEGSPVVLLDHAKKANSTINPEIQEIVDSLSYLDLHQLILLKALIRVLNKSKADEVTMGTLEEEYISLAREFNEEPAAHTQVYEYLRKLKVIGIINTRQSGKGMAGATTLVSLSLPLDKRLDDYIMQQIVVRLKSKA", "experiment": "EMSA; EMSA: 20 mM HEPES pH 7.6, 10 mM (NH4)2SO4, 1 mM DTT, 0.2% Tween-20, 30 mM KCl, 40 °C 20 min, 2 nM probe; 8% native PAGE in 40 mM Tris, 20 mM boric acid"}, "Orc1-2 ΔC": {"target": "T2, Orc1-2 ΔC (Saccharolobus islandicus REY15A, UniProt F0NF18 1-298)", "T2 sequence": "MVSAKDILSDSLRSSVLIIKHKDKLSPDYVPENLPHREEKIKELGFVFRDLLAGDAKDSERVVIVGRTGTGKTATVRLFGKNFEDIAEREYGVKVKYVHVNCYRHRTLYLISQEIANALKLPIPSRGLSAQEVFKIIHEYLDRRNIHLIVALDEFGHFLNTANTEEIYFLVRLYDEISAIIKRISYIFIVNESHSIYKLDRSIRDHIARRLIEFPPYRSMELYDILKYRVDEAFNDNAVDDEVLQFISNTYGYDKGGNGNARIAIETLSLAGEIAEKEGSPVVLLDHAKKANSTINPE", "experiment": "EMSA; EMSA: 20 mM HEPES pH 7.6, 10 mM (NH4)2SO4, 1 mM DTT, 0.2% Tween-20, 30 mM KCl, 40 °C 20 min, 2 nM probe; 8% native PAGE in 40 mM Tris, 20 mM boric acid"}, "Orc1-2 WT [1]": {"target": "T3, Orc1-2 WT (Saccharolobus islandicus REY15A, UniProt F0NF18 1-413)", "T3 sequence": "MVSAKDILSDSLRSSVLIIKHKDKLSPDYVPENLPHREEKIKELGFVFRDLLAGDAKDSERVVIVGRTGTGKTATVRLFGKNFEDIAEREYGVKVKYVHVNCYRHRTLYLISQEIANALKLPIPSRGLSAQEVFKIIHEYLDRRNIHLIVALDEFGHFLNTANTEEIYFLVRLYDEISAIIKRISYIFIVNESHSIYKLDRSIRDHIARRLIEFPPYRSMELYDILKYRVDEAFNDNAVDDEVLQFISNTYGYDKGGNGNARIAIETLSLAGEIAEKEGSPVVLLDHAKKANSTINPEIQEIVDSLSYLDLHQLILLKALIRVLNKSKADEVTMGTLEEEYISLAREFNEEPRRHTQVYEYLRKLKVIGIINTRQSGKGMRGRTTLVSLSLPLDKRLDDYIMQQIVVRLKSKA", "experiment": "EMSA; EMSA: 20 mM HEPES pH 7.6, 10 mM (NH4)2SO4, 1 mM DTT, 0.2% Tween-20, 30 mM KCl, 40 °C 20 min, 2 nM probe; 8% native PAGE in 40 mM Tris, 20 mM boric acid"}, "Orc1-2 ΔN": {"target": "T4, Orc1-2 ΔN (Saccharolobus islandicus REY15A, UniProt F0NF18 299-413)", "T4 sequence": "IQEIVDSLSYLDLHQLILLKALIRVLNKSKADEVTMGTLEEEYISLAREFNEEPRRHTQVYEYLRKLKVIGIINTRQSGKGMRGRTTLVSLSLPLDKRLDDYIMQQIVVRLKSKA", "experiment": "EMSA; large complexes, distributive; two distinct complexes at lowest protein concentration; EMSA: 20 mM HEPES pH 7.6, 10 mM (NH4)2SO4, 1 mM DTT, 0.2% Tween-20, 30 mM KCl, 40 °C 20 min, 2 nM probe; 8% native PAGE in 40 mM Tris, 20 mM boric acid"}, "Orc1-2 WB": {"target": "T5, Orc1-2 WB (Saccharolobus islandicus REY15A, UniProt F0NF18 1-413, E154A)", "T5 sequence": "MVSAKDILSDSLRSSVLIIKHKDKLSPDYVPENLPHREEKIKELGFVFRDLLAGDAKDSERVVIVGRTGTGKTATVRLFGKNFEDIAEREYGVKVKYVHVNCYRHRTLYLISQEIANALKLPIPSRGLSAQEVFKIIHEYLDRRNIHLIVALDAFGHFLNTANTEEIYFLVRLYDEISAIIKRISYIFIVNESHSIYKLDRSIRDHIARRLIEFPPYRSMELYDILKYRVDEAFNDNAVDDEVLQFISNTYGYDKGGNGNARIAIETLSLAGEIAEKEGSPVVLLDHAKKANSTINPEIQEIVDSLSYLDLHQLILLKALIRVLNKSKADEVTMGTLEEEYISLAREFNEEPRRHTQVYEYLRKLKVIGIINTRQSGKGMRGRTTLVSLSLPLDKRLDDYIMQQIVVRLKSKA", "experiment": "EMSA; similar or stronger than WT; EMSA: 20 mM HEPES pH 7.6, 10 mM (NH4)2SO4, 1 mM DTT, 0.2% Tween-20, 30 mM KCl, 40 °C 20 min, 2 nM probe; 8% native PAGE in 40 mM Tris, 20 mM boric acid"}, "Orc1-2 WT [2]": {"target": "T3, Orc1-2 WT", "experiment": "EMSA; 25 nM protein, unlabeled specific competitor; affinity very similar to PupsE; EMSA: 20 mM HEPES pH 7.6, 10 mM (NH4)2SO4, 1 mM DTT, 0.2% Tween-20, 30 mM KCl, 40 °C 20 min, 2 nM probe; 8% native PAGE in 40 mM Tris, 20 mM boric acid"}}, "data": [{"binder": "PupsE (dsDNA) DNA 1: CTATAAAGGAAGTTTTAAGTAATTTCGGTATTGTGTGAGTATATTT DNA 2: AAATATACTCACACAATACCGAAATTACTTAAAACTTCCTTTATAG", "values": [{"measurement": "binding result", "setting": "Orc1-2 wH", "result": "no binding"}, {"measurement": "binding result", "setting": "Orc1-2 ΔC", "result": "no binding"}, {"measurement": "binding result", "setting": "Orc1-2 WT [1]", "result": "binds"}, {"measurement": "binding result", "setting": "Orc1-2 ΔN", "result": "binds"}, {"measurement": "binding result", "setting": "Orc1-2 WB", "result": "binds"}]}, {"binder": "Porc1-2 (dsDNA) DNA 1: TTTGAGAAAGAATCAAGAAAAGTTTCGGACTACTCTCTTAGATAAA DNA 2: TTTATCTAAGAGAGTAGTCCGAAACTTTTCTTGATTCTTTCTCAAA", "values": [{"measurement": "binding result", "setting": "Orc1-2 WT [2]", "result": "binds"}]}]}
